Test results published in patent US8211429 (dated 2012).
Substitutions are numbered along the chain they refer to. Like-named read-outs stand apart in the source and are kept apart here. Each block holds one binder with its values, some of them ahead of it.

What was measured:
[1] = target: T1, ErbB2-ECD (human, UniProt P04626); assay: SPR up to 500 nM
[2] = target: T2, human NRP2 (human, UniProt O60462); assay: SPR up to 500 nM
T2 chain: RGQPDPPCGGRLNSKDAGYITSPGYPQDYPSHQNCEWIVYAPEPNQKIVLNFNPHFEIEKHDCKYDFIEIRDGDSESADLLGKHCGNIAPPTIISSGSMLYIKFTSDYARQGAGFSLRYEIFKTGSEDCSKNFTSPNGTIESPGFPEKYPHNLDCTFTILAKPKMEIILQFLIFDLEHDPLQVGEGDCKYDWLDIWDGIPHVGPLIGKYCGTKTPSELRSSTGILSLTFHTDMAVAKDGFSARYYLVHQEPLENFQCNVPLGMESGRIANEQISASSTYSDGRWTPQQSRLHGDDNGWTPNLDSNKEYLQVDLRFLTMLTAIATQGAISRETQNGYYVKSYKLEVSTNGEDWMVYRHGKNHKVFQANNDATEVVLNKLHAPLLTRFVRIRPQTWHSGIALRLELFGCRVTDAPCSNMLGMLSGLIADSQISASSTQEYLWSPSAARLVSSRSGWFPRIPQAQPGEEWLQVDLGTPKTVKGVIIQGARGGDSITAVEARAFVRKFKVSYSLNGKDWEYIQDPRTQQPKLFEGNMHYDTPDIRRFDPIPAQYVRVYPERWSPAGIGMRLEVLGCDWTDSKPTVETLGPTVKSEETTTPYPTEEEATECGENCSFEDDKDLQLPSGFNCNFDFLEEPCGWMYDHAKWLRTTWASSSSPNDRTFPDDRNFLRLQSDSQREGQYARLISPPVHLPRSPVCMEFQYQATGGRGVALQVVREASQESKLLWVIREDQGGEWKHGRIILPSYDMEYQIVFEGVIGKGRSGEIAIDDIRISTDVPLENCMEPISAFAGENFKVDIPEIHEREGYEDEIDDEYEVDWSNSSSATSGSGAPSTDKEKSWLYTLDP

[3] = target: T3, murine NRP2 (mouse, UniProt O35375); assay: SPR up to 500 nM
T3 chain: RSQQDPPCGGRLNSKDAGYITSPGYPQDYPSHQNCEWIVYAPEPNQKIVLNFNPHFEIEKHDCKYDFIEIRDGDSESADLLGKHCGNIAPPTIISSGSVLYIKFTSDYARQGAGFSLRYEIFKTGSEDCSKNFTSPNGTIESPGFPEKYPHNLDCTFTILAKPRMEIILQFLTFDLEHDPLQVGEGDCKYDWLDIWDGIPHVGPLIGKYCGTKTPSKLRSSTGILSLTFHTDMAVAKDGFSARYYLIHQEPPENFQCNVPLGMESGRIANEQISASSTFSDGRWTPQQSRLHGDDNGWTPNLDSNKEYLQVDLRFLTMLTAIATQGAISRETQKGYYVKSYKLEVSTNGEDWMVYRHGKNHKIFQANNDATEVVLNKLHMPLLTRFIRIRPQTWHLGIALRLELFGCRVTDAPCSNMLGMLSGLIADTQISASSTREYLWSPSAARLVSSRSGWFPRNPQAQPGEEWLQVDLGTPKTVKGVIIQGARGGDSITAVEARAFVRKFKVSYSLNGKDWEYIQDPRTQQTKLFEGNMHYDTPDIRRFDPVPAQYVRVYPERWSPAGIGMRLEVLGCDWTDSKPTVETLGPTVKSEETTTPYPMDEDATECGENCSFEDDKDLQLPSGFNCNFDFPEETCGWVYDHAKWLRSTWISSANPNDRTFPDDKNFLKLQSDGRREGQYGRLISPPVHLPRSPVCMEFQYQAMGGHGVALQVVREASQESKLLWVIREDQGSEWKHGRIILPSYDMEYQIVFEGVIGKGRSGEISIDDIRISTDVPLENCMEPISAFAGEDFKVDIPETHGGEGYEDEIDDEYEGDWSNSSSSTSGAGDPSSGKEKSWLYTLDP

[4] = target: BSA (bovine, UniProt P02769); assay: SPR up to 500 nM
Chain of BSA (P02769 25-607): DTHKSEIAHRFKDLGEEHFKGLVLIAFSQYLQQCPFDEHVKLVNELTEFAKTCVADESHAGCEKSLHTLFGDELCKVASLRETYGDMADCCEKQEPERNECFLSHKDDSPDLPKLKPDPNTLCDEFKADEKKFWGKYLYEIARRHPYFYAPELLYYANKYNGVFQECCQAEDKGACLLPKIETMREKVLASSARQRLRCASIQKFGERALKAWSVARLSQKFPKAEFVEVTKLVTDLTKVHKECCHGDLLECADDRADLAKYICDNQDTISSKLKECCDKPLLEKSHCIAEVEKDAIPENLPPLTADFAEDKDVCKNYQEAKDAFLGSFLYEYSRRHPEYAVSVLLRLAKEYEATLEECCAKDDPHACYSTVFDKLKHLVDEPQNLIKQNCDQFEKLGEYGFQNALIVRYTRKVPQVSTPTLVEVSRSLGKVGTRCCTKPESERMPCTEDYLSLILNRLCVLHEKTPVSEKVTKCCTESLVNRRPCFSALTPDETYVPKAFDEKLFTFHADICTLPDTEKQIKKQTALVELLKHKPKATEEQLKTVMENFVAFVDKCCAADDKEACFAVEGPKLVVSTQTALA

[5] = target: T4, murine NRP1 (mouse, UniProt P97333); assay: SPR 25C
T4 chain: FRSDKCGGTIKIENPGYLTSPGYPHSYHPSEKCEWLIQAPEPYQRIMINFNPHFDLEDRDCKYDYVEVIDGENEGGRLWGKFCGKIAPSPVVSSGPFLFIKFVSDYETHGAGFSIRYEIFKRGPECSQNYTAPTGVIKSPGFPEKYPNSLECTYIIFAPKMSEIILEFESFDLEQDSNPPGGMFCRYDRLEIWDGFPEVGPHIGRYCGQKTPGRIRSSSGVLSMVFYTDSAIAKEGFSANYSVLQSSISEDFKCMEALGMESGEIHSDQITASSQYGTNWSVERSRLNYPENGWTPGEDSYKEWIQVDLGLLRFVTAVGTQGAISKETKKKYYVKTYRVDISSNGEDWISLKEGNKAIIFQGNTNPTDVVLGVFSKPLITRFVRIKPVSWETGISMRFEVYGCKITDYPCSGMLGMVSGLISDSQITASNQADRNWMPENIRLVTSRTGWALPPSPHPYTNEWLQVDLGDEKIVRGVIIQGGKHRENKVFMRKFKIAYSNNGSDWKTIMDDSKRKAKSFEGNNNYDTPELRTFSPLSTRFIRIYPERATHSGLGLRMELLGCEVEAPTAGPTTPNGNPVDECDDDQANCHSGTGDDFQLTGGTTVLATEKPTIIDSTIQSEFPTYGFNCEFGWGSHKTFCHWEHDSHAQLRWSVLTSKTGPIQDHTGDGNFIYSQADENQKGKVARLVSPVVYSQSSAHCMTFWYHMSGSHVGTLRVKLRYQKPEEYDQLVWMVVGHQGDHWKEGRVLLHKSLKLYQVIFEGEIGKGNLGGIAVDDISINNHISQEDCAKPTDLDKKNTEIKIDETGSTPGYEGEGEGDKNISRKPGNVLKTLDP

[6] = target: T4, murine NRP1; assay: competition phage ELISA
[7] = target: T5, human NRP1 (human, UniProt O14786); assay: competition phage ELISA
[8] = target: T5, human NRP1; assay: SPR 25C
[9] = target: T1, ErbB2-ECD; assay: SPR
[10] = target: T4, murine NRP1; assay: competition phage ELISA
[11] = target: T5, human NRP1; assay: competition phage ELISA; remark: listed apart in the source
[12] = target: T3, murine NRP2; assay: SPR
[13] = target: T2, human NRP2; assay: SPR

binding result [1]: no binding
binding result [2]: no binding
binding result [3]: no binding
binding result [4]: no binding
B1: YW64.3 (antibody, V domains shown)
VH: EVQLVESGGGLVQPGGSLRLSCAASGFSFSSEPISWVRQAPGKGLEWVSSITGKNGYTYYADSVKGRFTISADTSKNTAYLQMNSLRAEDTAVYYCARWGKKVYGMDVWGQGTLVTVSS
VL: DIQMTQSPSSLSASVGDRVTITCRASQSISSYLAWYQQKPGKAPKLLIYGASSRASGVPSRFSGSGSGTDFTLTISSLQPEDFATYYCQQYMSVPITFGQGTKVEIKR

Kd [5]: 1.2 nM
IC50 [6]: 1.1 nM
IC50 [7]: 0.22 nM
Kd [8]: 0.9 nM
B2: YW107.4.52 (antibody, V domains shown)
VH: EVQLVESGGGLVQPGGSLRLSCAASGFTFSSYAMSWVRQAPGKGLEWVSQISPAGGYTNYADSVKGRFTISADTSKNTAYLQMNSLRAEDTAVYYCARELPYYRMSKVMDVWGQGTLVTVSS
VL: B1 VL with S28Y, I29F, S53T, R54L, M92I, S93R, V94S, I96L

Kd [5]: 0.8 nM
IC50 [6]: 0.8 nM
IC50 [7]: 0.15 nM
Kd [8]: 0.8 nM
B3: YW107.4.63 (antibody, V domains shown)
VH: B2 VH
VL: B1 VL with S28Y, I29L, R54S, A55E, M92I, I96L

Kd [5]: 11 nM
IC50 [6]: 38 nM
binding result [2]: no binding
binding result [3]: no binding
binding result [4]: no binding
binding result [9]: no binding
IC50 [7]: 6.1 nM
IC50 [10]: 38 nM
Kd [8]: 5 nM
IC50 [11]: 6.1 nM
B4: YW107.4 (antibody, V domains shown)
VH: B2 VH
VL: B1 VL with M92Y, V94S, I96L

Kd [5]: 31 nM
IC50 [6]: 0.8 nM
IC50 [7]: 0.23 nM
Kd [8]: 1.4 nM
B5: YW107.4.76a (antibody, V domains shown)
VH: B2 VH
VL: B1 VL with S28Y, S53R, M92L, S93R, V94S, I96H

binding result [12]: no binding
binding result [13]: no binding
B6: YW107.4.87 (antibody, V domains shown)
VH: B2 VH
VL: B1 VL with S28Y, I29F, M92L, S93G, V94S, I96P

Kd [5]: 3.2 nM
IC50 [6]: 1.4 nM
IC50 [7]: 0.28 nM
Kd [8]: 1.8 nM
B7: YW107.4.38 (antibody, V domains shown)
VH: B2 VH
VL: B1 VL with S28Y, I29L, M92L, S93R, V94S

IC50 [6]: 2 nM
IC50 [7]: 0.93 nM
B8: YW107.4.55 (antibody, V domains shown)
VH: B2 VH
VL: B1 VL with S28L, I29T, S30H, M92Y, V94S, I96L

Kd [5]: 2.1 nM
IC50 [6]: 1.1 nM
Kd [8]: 1 nM
B9: YW107.4.18 (antibody, V domains shown)
VH: B2 VH
VL: B1 VL with S28Y, I29F, S53T, R54H, A55E, M92I, S93R, V94S, I96L
